Data on one protein can be found in US20150376674.

The data set addresses tetranectin-apolipoprotein A-I fusion polypeptide precursor polypeptide.

B1: IgA-protease protein from Neisseria gonorrhoeae (protein)
chain: ALVRDDVDYQIFRDFAENKGKFFVGATDLSVKNKRGQNIGNALSNVPMIDFSVADVNKRIATVVDPQYAVSVKHAKAEVHTFYYGQYNGHNDVADKENEYRVVEQNNYEPHKAWGASNLGRLEDYNMARFNKFVTEVAPIAPTDAGGGLDTYKDKNRFSSFVRIGAGRQLVYEKGVYHQEGNEKGYDLRDLSQAYRYAIAGTPYKDINIDQTMNTEGLIGFGNHNKQYSAEELKQALSQDALTNYGVLGDSGSPLFAFDKQKNQWVFLGTYDYWAGYGKKSWQEWNIYKKEFADKIKQHDNAGTVKGNGEHHWKTTGTNSHIGSTAVRLANNEGDANNGQNVTFEDNGTLVLNQNINQGAGGLFFKGDYTVKGANNDITWLGAGIDVADGKKVVWQVKNPNGDRLAKIGKGTLEINGTGVNQGQLKVGDGTVILNQKADADKKVQAFSQVGIVSGRGTLVLNSSNQINPDNLYFGFRGGRLDANGNDLTFEHIRNVDEGARIVNHNTDHASTITLTGKSLITNPNSLSVHSIQNDYDEDDYSYYYRPRRPIPQGKDLYYKNYRYYALKSGGRLNAPMPENGVAENNDWIFMGYTQEEARKNAMNHKNNRRIGDFGGFFDEENGKGHNGALNLNFNGKSAQKRFLLTGGANLNGKISVTQGNVLLSGRPTPHARDFVNKSSARKDAHFSKNNEVVFEDDWINRTFKAAEIAVNQSASFSSGRNVSDITANITATDNAKVNLGYKNGDEVCVRSDYTGYVTCNTGNLSDKALNSFDATRINGNVNLNQNAALVLGKAALWGKIQGQGNSRVSLNQHSKWHLTGDSQVHNLSLADSHIHLNNASDAQSANKYHTIKINHLSGNGHFHYLTDLAKNLGDKVLVKESASGHYQLHVQNKTGEPNQEGLDLFDASSVQDRSRLFVSLANHYVDLGALRYTIKTENGITRLYNPYAGNGRPVKPAP
Take B1: the Cleavage activity entry is reported as “Cleavage activity was in the expected range”.
